According to patent US6572751B1, “Method and apparatus for continuous flow isoelectric focusing for purifying biological substances” (priority 1997, dated 2003):

Test: Amylolytic activity of purified α-amylase
Conditions: middle outflow after second contifocusing run

B1: α-amylase: enzyme purified from Bacillus subtilis strain A-200 culture supernatant (protein, UniProt P00691 42-659, looked up)
Alpha-amylase: LTAPSIKSGTILHAWNWSFNTLKHNMKDIHDAGYTAIQTSPINQVKEGNQGDKSMSNWYWLYQPTSYQIGNRYLGTEQEFKEMCAAAEEYGIKVIVDAVINHTTSDYAAISNEVKSIPNWTHGNTQIKNWSDRWDVTQNSLLGLYDWNTQNTQVQSYLKRFLDRALNDGADGFRFDAAKHIELPDDGSYGSQFWPNITNTSAEFQYGEILQDSASRDAAYANYMDVTASNYGHSIRSALKNRNLGVSNISHYASDVSADKLVTWVESHDTYANDDEESTWMSDDDIRLGWAVIASRSGSTPLFFSRPEGGGNGVRFPGKSQIGDRGSALFEDQAITAVNRFHNVMAGQPEELSNPNGNNQIFMNQRGSHGVVLANAGSSSVSINTATKLPDGRYDNKAGAGSFQVNDGKLTGTINARSVAVLYPDDIAKAPHVFLENYKTGVTHSFNDQLTITLRADANTTKAVYQINNGPETAFKDGDQFTIGKGDPFGKTYTIMLKGTNSDGVTRTEKYSFVKRDPASAKTIGYQNPNHWSQVNAYIYKHDGSRVIELTGSWPGKPMTKNADGIYTLTLPADTDTTNAKVIFNNGSAQVPGQNQPGFDYVLNGLYNDSGLSGSLPH
In the case of B1, the amylolytic activity is reported as 200 U/g.
